This note sets out measurements from patent publication US12103979B2, “N-acetylated and non-acetylated dipeptides containing arginine to reduce the viscosity of viscous compositions of therapeutic polypeptides” (AMGEN INC., priority 2017, dated 2024).

Data set [1] can be described thus: pI of therapeutic antibodies of Table 1. The class given is physicochemical.
Data set [2] is described as follows: Viscosity of therapeutic antibodies of Table 1 at exemplary concentration. The class given is physicochemical. To be noted: at the Conc. (133.9-162.5 mg/ml).

B1: Sclerostin (2B8): therapeutic antibody; IgG2, Lambda; LC SEQ ID NO 79, HC SEQ ID NO 80 (antibody, listed as Homo sapiens)
heavy: MEFGLSWVFLVALLRGVQCQVQLVESGGGVVQPGRSLRLSCAASGFTFSSYVMHWVRQAPGKGLEWVAVIWYDGSNKYYADSVKGRFTISRDNSKNTLYLQMNSLRAEDTAVYYCAREGYDYGEDYYYYGMDVWGQGTTVTVSSASTKGPSVFPLAPCSRSTSESTAALGCLVKDYFPEPVTVSWNSGALTSGVHTFPAVLQSSGLYSLSSVVTVPSSNFGTQTYTCNVDHKPSNTKVDKTVERKCCVECPPCPAPPVAGPSVFLFPPKPKDTLMISRTPEVTCVVVDVSHEDPEVQFNWYVDGVEVHNAKTKPREEQFNSTFRVVSVLTVVHQDWLNGKEYKCKVSNKGLPAPIEKTISKTKGQPREPQVYTLPPSREEMTKNQVSLTCLVKGFYPSDIAVEWESNGQPENNYKTTPPMLDSDGSFFLYSKLTVDKSRWQQGNVFSCSVMHEALHNHYTQKSLSLSPGK
light: MAWAPLLLTLLAHCTGSWANFMLTQPHSVSESPGKTVAISCTRNSGSIASNSVQWYQQRPGSSPTTVIFEDNQRPSGVPDRFSGSIDSSSNSASLTISGLKTEDEADYYCQSYDSNNWVFGGGTKLTVLGQPKANPTVTLFPPSSEELQANKATLVCLISDFYPGAVTVAWKADGSPVKAGVETTKPSKQSNNKYAASSYLSLTPEQWKSHRSYSCQVTHEGSTVEKTVAPTECS
In the case of B1, the pl in data set [1] worked out at 6.7. Also, the “Viscosity (cP)” value in data set [2] was 30.0 cP.

B2: Dkk1 (11H10): therapeutic antibody; IgG2, Kappa; LC SEQ ID NO 71, HC SEQ ID NO 72 (antibody, listed as Homo sapiens)
heavy: MDIRLSLAFLVLFIKGVQCEVQLVESGGGLVQPANSLKLSCAASGFTFSDYAMAWVRQSPKKGLEWVATIIYDGSSTYYRDSVKGRFTISRDNAKSTLYLQMDSLRSEDTATYYCATGLGIATDYFDYWGQGVLVTVSSAETTAPSVYPLAPGTALKSNSMVTLGCLVKGYFPEPVTVTWNSGALSSGVHTFPAVLQSGLYTLTSSVTVPSSTWPSQTVTCNVAHPASSTKVDKKIVPRNCGGDCKPCICTGSEVSSVFIFPPKPKDVLTITLTPKVTCVVVDISQDDPEVHFSWFVDDVEVHTAQTRPPEEQFNSTFRSVSELPILHQDWLNGRTFRCKVTSAAFPSPIEKTISKPEGRTQVPHVYTMSPTKEEMTQNEVSITCMVKGFYPPDIYVEWQMNGQPQENYKNTPPTMDTDGSYFLYSKLNVKKEKWQQGNTFTCSVLHEGLHNHHTEKSLSHSPGK
light: MGVPTHLLGLLLLWITHAICDIRMTQSPASLSASLGETVNIECLASEDIYSDLAWYQQKPGKSPQLLIYNANSLQNGVPSRFSGSGSGTQYSLKINSLQSEDVATYFCQQYNNYPPTFGGGTKLELKRADAAPTVSIFPPSTEQLATGGASVVCLMNNFYPRDISVKWKIDGTERRDGVLDSVTDQDSKDSTYSMSSTLSLTKADYESHNLYTCEVVHKTSSSPVVKSFNRNEC
Take B2: the pl in data set [1] was determined as 8.2. Besides, in data set [2], the “Viscosity (cP)” value worked out at 22.5 cP.

B3: CGRP: therapeutic antibody; IgG2, Lambda; LC SEQ ID NO 29, HC SEQ ID NO 30 (antibody, listed as Homo sapiens)
heavy: MEFGLSWVFLVALLRGVQCQVQLVESGGGVVQPGRSLRLSCAASGFTFSSFGMHWVRQAPGKGLEWVAVISFDGSIKYSVDSVKGRFTISRDNSKNTLFLQMNSLRAEDTAVYYCARDRLNYYDSSGYYHYKYYGMAVWGQGTTVTVSSASTKGPSVFPLAPCSRSTSESTAALGCLVKDYFPEPVTVSWNSGALTSGVHTFPAVLQSSGLYSLSSVVTVPSSNFGTQTYTCNVDHKPSNTKVDKTVERKCCVECPPCPAPPVAGPSVFLFPPKPKDTLMISRTPEVTCVVVDVSHEDPEVQFNWYVDGVEVHNAKTKPREEQFNSTFRVVSVLTVVHQDWLNGKEYKCKVSNKGLPAPIEKTISKTKGQPREPQVYTLPPSREEMTKNQVSLTCLVKGFYPSDIAVEWESNGQPENNYKTTPPMLDSDGSFFLYSKLTVDKSRWQQGNVFSCSVMHEALHNHYTQKSLSLSPGK
light: MTCSPLLLTLLIHCTGSWAQSVLTQPPSVSAAPGQKVTISCSGSSSNIGNNYVSWYQQLPGTAPKLLIYDNNKRPSGIPDRFSGSKSGTSTTLGITGLQTGDEADYYCGTWDSRLSAVVFGGGTKLTVLGQPKANPTVTLFPPSSEELQANKATLVCLISDFYPGAVTVAWKADGSPVKAGVETTKPSKQSNNKYAASSYLSLTPEQWKSHRSYSCQVTHEGSTVEKTVAPTECS
In turn, B3 registered a pl in data set [1] of 8.8. Further, the “Viscosity (cP)” value in data set [2] came out at 9.6 cP.

B4: TSLP: therapeutic antibody; IgG2, Lambda; LC SEQ ID NO 69, HC SEQ ID NO 70 (antibody, listed as Homo sapiens)
heavy: MGSTAILGLLLAVLQGGRAQMQLVESGGGVVQPGRSLRLSCAASGFTFRTYGMHWVRQAPGKGLEWVAVIWYDGSNKHYADSVKGRFTITRDNSKNTLNLQMNSLRAEDTAVYYCARAPQWELVHEAFDIWGQGTMVTVSSASTKGPSVFPLAPCSRSTSESTAALGCLVKDYFPEPVTVSWNSGALTSGVHTFPAVLQSSGLYSLSSVVTVPSSNFGTQTYTCNVDHKPSNTKVDKTVERKCCVECPPCPAPPVAGPSVFLFPPKPKDTLMISRTPEVTCVVVDVSHEDPEVQFNWYVDGVEVHNAKTKPREEQFNSTFRVVSVLTVVHQDWLNGKEYKCKVSNKGLPAPIEKTISKTKGQPREPQVYTLPPSREEMTKNQVSLTCLVKGFYPSDIAVEWESNGQPENNYKTTPPMLDSDGSFFLYSKLTVDKSRWQQGNVFSCSVMHEALHNHYTQKSLSLSPGK
light: MGSTAILGLLLAVLQGGRASYVLTQPPSVSVAPGQTARITCGGNNLGSKSVHWYQQKPGQAPVLVVYDDSDRPSWIPERFSGSNSGNTATLTISRGEAGDEADYYCQVWDSSSDHVVFGGGTKLTVLGQPKAAPSVTLFPPSSEELQANKATLVCLISDFYPGAVTVAWKADSSPVKAGVETTTPSKQSNNKYAASSYLSLTPEQWKSHRSYSCQVTHEGSTVEKTVAPTECS
Molecule B4 came in with a pl in data set [1] of 7.2. Moreover, the “Viscosity (cP)” value in data set [2] is 21.4 cP.

B5: Hepcidin: therapeutic antibody; IgG2, Lambda; LC SEQ ID NO 31, HC SEQ ID NO 32 (antibody, listed as Homo sapiens)
heavy: MEFGLSWVFLVALLRGVQCQVQLVESGGGVVQPGRSLRLSCAASGFTFSSYGMHWVRQAPGKGLEWVAVIWYAESNKYYADSVKGRFTISRDNSKNTLYLQMNSLRAEDTAVYYCARAQEGIAPDAFDIWGQGTMVTVSSASTKGPSVFPLAPCSRSTSESTAALGCLVKDYFPEPVTVSWNSGALTSGVHTFPAVLQSSGLYSLSSVVTVPSSNFGTQTYTCNVDHKPSNTKVDKTVERKCCVECPPCPAPPVAGPSVFLFPPKPKDTLMISRTPEVTCVVVDVSHEDPEVQFNWYVDGVEVHNAKTKPREEQFNSTFRVVSVLTVVHQDWLNGKEYKCKVSNKGLPAPIEKTISKTKGQPREPQVYTLPPSREEMTKNQVSLTCLVKGFYPSDIAVEWESNGQPENNYKTTPPMLDSDGSFFLYSKLTVDKSRWQQGNVFSCSVMHEALHNHYTQKSLSLSPGK
light: MDMRVPAQLLGLLLLWLRGARCYELTQPPSVSVSPGQTATITCSGDKLGERYASWYQQRPGQSPVLVIYQDIKRPSGIPERFSGSNSGNTATLTISGTQAMDEADYFCQAWYSSTNVLFGGGTKLTVLGQPKAAPSVTLFPPSSEELQANKATLVCLISDFYPGAVTVAWKADSSPVKAGVETTTPSKQSNNKYAASSYLSLTPEQWKSHRSYSCQVTHEGSTVEKTVAPTECS
B5: the pl in data set [1] amounted to 7.3. Further, the “Viscosity (cP)” value in data set [2] is listed as 9.9 cP.

B6: PCSK9: therapeutic antibody; IgG2, Lambda; LC SEQ ID NO 73, HC SEQ ID NO 74 (antibody, listed as Homo sapiens)
heavy: MDWTWRILFLVAAATGVHSEVQLVQSGAEVKKPGASVKVSCKASGYTLTSYGISWVRQAPGQGLEWMGWVSFYNGNTNYAQKLQGRGTMTTDPSTSTAYMELRSLRSDDTAVYYCARGYGMDVWGQGTTVTVSSASTKGPSVFPLAPCSRSTSESTAALGCLVKDYFPEPVTVSWNSGALTSGVHTFPAVLQSSGLYSLSSVVTVPSSNFGTQTYTCNVDHKPSNTKVDKTVERKCCVECPPCPAPPVAGPSVFLFPPKPKDTLMISRTPEVTCVVVDVSHEDPEVQFNWYVDGVEVHNAKTKPREEQFNSTFRVVSVLTVVHQDWLNGKEYKCKVSNKGLPAPIEKTISKTKGQPREPQVYTLPPSREEMTKNQVSLTCLVKGFYPSDIAVEWESNGQPENNYKTTPPMLDSDGSFFLYSKLTVDKSRWQQGNVFSCSVMHEALHNHYTQKSLSLSPGK
light: MDMRVPAQLLGLLLLWLRGARCESALTQPASVSGSPGQSITISCTGTSSDVGGYNSVSWYQQHPGKAPKLMIYEVSNRPSGVSNRFSGSKSGNTASLTISGLQAEDEADYYCNSYTSTSMVFGGGTKLTVLGQPKAAPSVTLFPPSSEELQANKATLVCLISDFYPGAVTVAWKADSSPVKAGVETTTPSKQSNNKYAASSYLSLTPEQWKSHRSYSCQVTHEGSTVEKTVAPTECS
In turn, B6 yielded a pl in data set [1] of 8.1.
